Target: the molecule itself
Assay: SEC-MALS

B1: Chlamydia trachomatis Serovar F native major outer membrane protein (nMOMP), from adherent HeLa 229 cells (natural protein)
chain: LPVGNPAEPSLMIDGILWEGFGGDPCDPCTTWCDAISMRMGYYGDFVFDRVLKTDVNKEFEMGEALAGASGNTTSTLSKLVERTNPAYGKHMQDAEMFTNAACMTLNIWDRFDVFCTLGATSGYLKGNSASFNLVGLFGDGVNATKPAADSIPNVQLNQSVVELYTDTTFAWSVGARAALWECGCATLGASFQYAQSKPKIEELNVLCNAAEFTINKPKGYVGKEFPLDLTAGTDAATGTKDASIDYHEWQASLSLSYRLNMFTPYIGVKWSRASFDSDTIRIAQPRLVTPVVDITTLNPTIAGCGSVAGANTEGQISDTMQIVSLQLNKMKSRKSCGIAVGTTIVDADKYAVTVETRLIDERAAHVNAQFRF
stoichiometry N: 2.85

B2: Chlamydia trachomatis Serovar E native major outer membrane protein (nMOMP), from adherent HeLa 229 cells (natural protein)
chain: LPVGNPAEPSLMIDGILWEGFGGDPCDPCTTWCDAISMRMGYYGDFVFDRVLKTDVNKEFQMGDKPTSTTGNATAPTTLTARENPAYGRHMQDAEMFTNAACMALNIWDRFDVFCTLGASSGYLKGNSASFNLVGLFGDNENQSTVKTNSVPNMSLDQSVVELYTDTAFSWSVGARAALWECGCATLGASFQYAQSKPKVEELNVLCNAAEFTINKPKGYVGQEFPLALIAGTDAATGTKDASIDYHEWQASLALSYRLNMFTPYIGVKWSRASFDADTIRIAQPKSATAIFDTTTLNPTIAGAGDVKASAEGQLGDTMQIVSLQLNKMKSRKSCGIAVGTTIVDADKYAVTVETRLIDERAAHVNAQFRF
stoichiometry N: 2.52

B3: Chlamydia trachomatis Serovar E native major outer membrane protein (nMOMP), from HeLa suspension cells (natural protein)
chain: B2 chain
stoichiometry N: 2.3

B4: Chlamydia trachomatis Serovar E native major outer membrane protein (nMOMP), from CHO suspension cells (natural protein)
chain: B2 chain
stoichiometry N: 2.27

B5: Chlamydia muridarum native major outer membrane protein (nMOMP), from adherent HeLa 229 cells (natural protein)
chain: LPVGNPAEPSLMIDGILWEGFGGDPCDPCTTWCDAISLRLGYYGDFVFDRVLKTDVNKQFEMGAAPTGDADLTTAPTPASRENPAYGKHMQDAEMFTNAAYMALNIWDRFDVFCTLGATSGYLKGNSAAFNLVGLFGRDETAVAADDIPNVSLSQAVVELYTDTAFAWSVGARAALWECGCATLGASFQYAQSKPKVEELNVLCNAAEFTINKPKGYVGQEFPLNIKAGTVSATDTKDASIDYHEWQASLALSYRLNMFTPYIGVKWSRASFDADTIRIAQPKLETSILKMTTWNPTISGSGIDVDTKITDTLQIVSLQLNKMKSRKSCGLAIGTTIVDADKYAVTVETRLIDERAAHVNAQFRF
stoichiometry N: 2.59

B6: Chlamydia trachomatis Serovar D native major outer membrane protein (nMOMP), from adherent HeLa 229 cells (natural protein)
chain: LPVGNPAEPSLMIDGILWEGFGGDPCDPCATWCDAISMRVGYYGDFVFDRVLKTDVNKEFQMGAKPTTDTGNSAAPSTLTARENPAYGRHMQDAEMFTNAACMALNIWDRFDVFCTLGATSGYLKGNSASFNLVGLFGDNENQKTVKAESVPNMSFDQSVVELYTDTTFAWSVGARAALWECGCATLGASFQYAQSKPKVEELNVLCNAAEFTINKPKGYVGKEFPLDLTAGTDAATGTKDASIDYHEWQASLALSYRLNMFTPYIGVKWSRASFDADTIRIAQPKSATAIFDTTTLNPTIAGAGDVKTGAEGQLGDTMQIVSLQLNKMKSRKSCGIAVGTTIVDADKYAVTVETRLIDERAAHVNAQFRF
stoichiometry N: 2.8
